Measurements reported in PMC9830665.

Columns and labels:
[1] = biological target: uridine-specific nidoviral endoribonuclease (NendoU) protein from SARS-CoV-2 (SARS-CoV-2); test: SEC
[2] = biological target: uridine-specific nidoviral endoribonuclease (NendoU) protein from SARS-CoV-2 (SARS-CoV-2); test: dynamic light scattering

uridine-specific nidoviral endoribonuclease (NendoU) protein from SARS-CoV-2 (enzyme)
stoichiometry N [1]: 6 | stoichiometry N [2]: 6
